Assay results as given in patent publication US20090099029A1, “Methods and substrates for conducting assays” (Invitrogen Corporation, priority 2005, published 2009).

System: kinases of Table 6 on Myelin Basic Protein (MBP)
Experiment: Kinase assay using MBP substrate, ProQ Diamond stain (Table 6)
Format: biochemical
Details: kinase printed on MBP-coated slide; 20 uM ATP, 30° C.; ProQ Diamond Microarray Stain; graded Strong/Weak/Negative
Method: In this illustrative example, four-well slides were designed with a hydrophobic mask surrounding 4-wells of aldehyde- or epoxy-coated glass (smooth or ES grade; Erie Scientific (Portsmouth, N.H.)). […] Bovine, dephosphorylated, Myelin Basic Protein (MBP) was purchased from Upstate Biotechnology (#13-110). MBP was diluted to 1 mg/ml in PBS, applied to the slide surface, covered with a coverslip, and left overnight at 4° C. to coat the slide with the MBP. Slides were washed 3 times with water and spun dry before printing.
Kinases were purchased from Panvera (Invitrogen, Carlsbad, Calif.), diluted in printing buffer (50 mM Tris pH 7.5, 25% glyercol, 0.05% TritonX-100, 2 mM DTT) and deposited using a GeneMachine OmniGrid100. Slides were stored at −20° C.
Reactions were performed following removal of the slide from the freezer. Reaction buffer (20 mM HEPES pH 7.5, 4 mM MgCl2, 2 mM DTT, 20 uM ATP, 5% DMSO) was added with or without inhibitor, a coverslip applied, and the slide placed at 30° C. for the appropriate reaction time. The slide was washed with water to stop the reaction (3 times) and spun dry. ProQ Diamond Microarray Stain (Invitrogen #P33706) was applied, covered with a coverslip, and the slide was incubated in the dark at room temperature for 30 minutes. The slide was destained and washed three times with water, and spun dry.

B1: DAPK2 (protein)
chain: MFQASMRSPNMEPFKQQKVEDFYDIGEELGSGQFAIVKKCREKSTGLEYAAKFIKKRQSRASRRGVSREEIEREVSILRQVLHHNVITLHDVYENRTDVVLILELVSGGELFDFLAQKESLSEEEATSFIKQILDGVNYLHTKKIAHFDLKPENIMLLDKNIPIPHIKLIDFGLAHEIEDGVEFKNIFGTPEFVAPEIVNYEPLGLEADMWSIGVITYILLSGASPFLGDTKQETLANITAVSYDFDEEFFSQTSELAKDFIRKLLVKETRKRLTIQEALRHPWITPVDNQQAMVRRESVVNLENFRKQYVRRRWKLSFSIVSLCNHLTRSLMKKVHLRPDEDLRNCESDTEEDIARRKALHPRRRSSTS
modifications: left off: a dimerising Fc or GST
- MBP Kinase Activity: Negative

B2: CSNK1D(CK1delta) (protein)
chain: MELRVGNRYRLGRKIGSGSFGDIYLGTDIAAGEEVAIKLECVKTKHPQLHIESKIYKMMQGGVGIPTIRWCGAEGDYNVMVMELLGPSLEDLFNFCSRKFSLKTVLLLADQMISRIEYIHSKNFIHRDVKPDNFLMGLGKKGNLVYIIDFGLAKKYRDARTHQHIPYRENKNLTGTARYASINTHLGIEQSRRDDLESLGYVLMYFNLGSLPWQGLKAATKRQKYERISEKKMSTPIEVLCKGYPSEFATYLNFCRSLRFDDKPDYSYLRQLFRNLFHRQGFSYDYVFDWNMLKFGASRAADDAERERRDREERLRHSRNPATRGLPSTASGRLRGTQEVAPPTPLTPTSHTANTSPRPVSGMERERKVSMRLHRGAPVNISSSDLTGRQDTSRMSTSQNSIPFEHHGK
modifications: left off: a dimerising Fc or GST
- MBP Kinase Activity: Negative

B3: CSNK2A2 (protein)
chain: MPGPAAGSRARVYAEVNSLRSREYWDYEAHVPSWGNQDDYQLVRKLGRGKYSEVFEAINITNNERVVVKILKPVKKKKIKREVKILENLRGGTNIIKLIDTVKDPVSKTPALVFEYINNTDFKQLYQILTDFDIRFYMYELLKALDYCHSKGIMHRDVKPHNVMIDHQQKKLRLIDWGLAEFYHPAQEYNVRVASRYFKGPELLVDYQMYDYSLDMWSLGCMLASMIFRREPFFHGQDNYDQLVRIAKVLGTEELYGYLKKYHIDLDPHFNDILGQHSRKRWENFIHSENRHLVSPEALDLLDKLLRYDHQQRLTAKEAMEHPYFYPVVKEQSQPCADNAVLSSGLTAAR
modifications: left off: a dimerising Fc or GST
- MBP Kinase Activity: Negative

B4: CHEK1 (protein)
chain: MAVPFVEDWDLVQTLGEGAYGEVQLAVNRVTEEAVAVKIVDMKRAVDCPENIKKEICINKMLNHENVVKFYGHRREGNIQYLFLEYCSGGELFDRIEPDIGMPEPDAQRFFHQLMAGVVYLHGIGITHRDIKPENLLLDERDNLKISDFGLATVFRYNNRERLLNKMCGTLPYVAPELLKRREFHAEPVDVWSCGIVLTAMLAGELPWDQPSDSCQEYSDWKEKKTYLNPWKKIDSAPLALLHKILVENPSARITIPDIKKDRWYNKPLKKGAKRPRVTSGGVSESPSGFSKHIQSNLDFSPVNSASSEENVKYSSSQPEPRTGLSLWDTSPSYIDKLVQGISFSQPTCPDHMLLNSQLLGTPGSSQNPWQRLVKRMTRFFTKLDADKSYQCLKETCEKLGYQWKKSCMNQVTISTTDRRNNKLIFKVNLLEMDDKILVDFRLSKGDGLEFKRHFLKIKGKLIDIVSSQKIWLPAT
modifications: left off: small tags and cut ends
- MBP Kinase Activity: Strong

B5: EPHA1 (protein)
chain: RSRRAQRQRQQRQRDRATDVDREDKLWLKPYVDLQAYEDPAQGALDFTRELDPAWLMVDTVIGEGEFGEVYRGTLRLPSQDCKTVAIKTLKDTSPGGQWWNFLREATIMGQFSHPHILHLEGVVTKRKPIMIITEFMENGALDAFLREREDQLVPGQLVAMLQGIASGMNYLSNHNYVHRDLAARNILVNQNLCCKVSDFGLTRLLDDFDGTYETQGGKIPIRWTAPEAIAHRIFTTASDVWSFGIVMWEVLSFGDKPYGEMSNQEVMKSIEDGYRLPPPVDCPAPLYELMKNCWAYDRARRPHFQKLQAHLEQLLANPHSLRTIANFDPRMTLRLPSLSGSDGIPYRTVSEWLESIRMKRYILHFHSAGLDTMECVLELTAEDLTQMGITLPGHQKRILCSIQGFKD
modifications: left off: a dimerising Fc or GST
- MBP Kinase Activity: Strong
